Laboratory results taken from patent US10006080B2, “High-selectivity contact activation inhibitor based on infestin-4” (OBSCHESTVO S OGRANICHENNOY OTVETSTVENNOSTYU …, priority 2013, dated 2018).

What was measured:
aPC = aPC (Homo sapiens, UniProt P04070); assay: Chromogenic test of protease inhibition in buffer, aPC (substrate Spectrozyme pCa); type: biochemical; settings: buffer solution, summary of Table 2
Method: In order to assess selectivity of the fXIIa inhibition by the polypeptide comprising the sequence of the infestin-4 mutant MutB, its inhibitory activity in buffer solution against the purified coagulation factors was determined. The polypeptide's activity was compared with the known fXIIa inhibitors: CTI, infestin-4, infestin-4-based mutant Mut15, LCTI-III. […] The standard deviation amounted to about 50% of the average value; each value was measured by performing 2-3 repeats.
(§1) To determine the inhibition activity of such proteins as MutB, CTI, Inf4, Mut15, and LCTI-III as related to different coagulation proteases in a buffer, the chromogenic test was used: the mixture of protease and inhibitor was incubated in the wells of the plate for 15 minutes at 37° C., after which the chromogenic substrate solution was added to the mixture, and the protease activity was measured as the rate of chromogenic product formation at 37° C.
Chromogenic substrates included a p-nitroanilide group cleaved by the corresponding proteases. After cleavage of the p-nitroanilide group from the substrate molecule, the group absorption spectrum changes, and the change of concentration of such product within time can be detected at the light wavelength of 405 nm using a plate spectrophotometer. […]

factor XIa = molecular target: T1, factor XIa (UniProt P03951 19-625); assay: chromogenic test (S-2366), IC50 converted by Cheng-Prusoff
T1 construct: also called fXIa
Method: as §1
(§2) Chromogenic substrates included a p-nitroanilide group cleaved by the corresponding proteases. After cleavage of the p-nitroanilide group from the substrate molecule, the group absorption spectrum changes, and the change of concentration of such product within time can be detected at the light wavelength of 405 nm using a plate spectrophotometer. To build a dependence curve of the protease activity from the inhibitor concentration, different inhibitor concentrations were added into several samples with the same protease concentration. After that, the inhibitor concentration able to decrease the protease activity by 50% (IC50) was determined. The inhibition constant Ki was calculated using the Cheng-Prusoff equation (Ki=IC50/(1+S/KM)), where S is the initial substrate concentration, KM is the Michaelis-Menten constant of the substrate to the protease.

factor XIIa = molecular target: T2, factor XIIa (UniProt P00748 20-615, limits assumed); assay: chromogenic test (S-2302), IC50 converted by Cheng-Prusoff
T2 construct: also called fXIIa
T2 sequence (looked up): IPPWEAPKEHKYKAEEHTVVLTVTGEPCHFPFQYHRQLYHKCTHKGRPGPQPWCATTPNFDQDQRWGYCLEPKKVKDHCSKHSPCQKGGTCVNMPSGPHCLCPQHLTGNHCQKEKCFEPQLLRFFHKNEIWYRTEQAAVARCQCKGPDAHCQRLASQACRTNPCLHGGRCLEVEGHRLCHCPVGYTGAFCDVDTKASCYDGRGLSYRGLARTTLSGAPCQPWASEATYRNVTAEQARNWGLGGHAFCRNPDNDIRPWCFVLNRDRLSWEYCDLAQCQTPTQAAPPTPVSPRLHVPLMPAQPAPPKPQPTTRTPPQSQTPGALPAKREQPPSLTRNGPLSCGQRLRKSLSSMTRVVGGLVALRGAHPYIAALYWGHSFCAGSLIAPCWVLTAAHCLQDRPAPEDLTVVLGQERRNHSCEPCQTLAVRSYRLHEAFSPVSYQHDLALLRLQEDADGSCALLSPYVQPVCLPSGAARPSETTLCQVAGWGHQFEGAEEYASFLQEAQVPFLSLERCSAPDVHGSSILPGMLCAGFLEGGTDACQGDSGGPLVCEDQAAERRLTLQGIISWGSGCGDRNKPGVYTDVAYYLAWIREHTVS
Method: as §1, §2

aPC, sequence (P04070 212-450 limits assumed): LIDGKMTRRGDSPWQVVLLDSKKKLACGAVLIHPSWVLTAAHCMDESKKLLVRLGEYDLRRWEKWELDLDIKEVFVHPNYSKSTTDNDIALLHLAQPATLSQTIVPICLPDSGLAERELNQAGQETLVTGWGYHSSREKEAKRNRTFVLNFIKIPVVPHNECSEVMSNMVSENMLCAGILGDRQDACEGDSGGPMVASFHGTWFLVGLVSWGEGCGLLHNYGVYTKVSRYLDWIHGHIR
aPC, sequence (P04070 43-197 partner limits assumed): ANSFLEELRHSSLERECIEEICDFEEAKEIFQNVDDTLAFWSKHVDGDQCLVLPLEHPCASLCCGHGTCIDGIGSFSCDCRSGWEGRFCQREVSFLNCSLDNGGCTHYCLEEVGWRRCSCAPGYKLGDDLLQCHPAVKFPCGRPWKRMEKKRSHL

inhibition of aPC (in words) (aPC): inhibits | Ki (factor XIa): 15 µM | Ki (factor XIIa): 0.001 µM
B1: corn trypsin inhibitor (other, UniProt P01088 29-138, looked up)
chain: SAGTSCVPGWAIPHNPLPSCRWYVTSRTCGIGPRLPWPELKRRCCRELADIPAYCRCTALSILMDGAIPPGPDAQLEGRLEDLPGCPREVQRGFAATLVTEAECNLATIS
notes: Isolated from corn; also called CTI
